± gives the standard deviation of the averaged measurements.
System: ATP
Test: switch fluorescence ratio, 500 uM ATP over buffer (Cy3 cluster intensity, sum of 5 cycles each) (fold (ratio)); higher = stronger signal-on switching upon ATP binding; sequences stand for … in TCGTCGGCAGCGTCAGATGTGTATAAGAGACAGTTTTTTTTTTTTTTTTTTTTTTTTT…TC
Conditions: aptamer strand: ATP DNA aptamer (quencher-CACCTGGGGGAGTATTGCGGAGGAAGG + anchor), 100 nM annealed; ATP concentration: 500 uM
How it was run: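 Cy3-labelled switching-strand clusters on a modified Illumina MiSeq flow-cell were annealed to 100 nM quencher-labelled ATP aptamer and imaged first in selection buffer, then after 15 min with 500 uM ATP at 22 °C. NaOH stripping and re-annealing separated each of five buffer/ATP cycles, and clusters outside 100-1000 RFU were excluded. The fluorescence ratio sums target-cycle Cy3 intensity over buffer-cycle Cy3 intensity per cluster and averages it per switch-domain sequence.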
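Also: ATP exposure 15 min at 22 °C before imaging.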

| Sequence | switch fluorescence ratio |
| --- | --- |
| GGGGAATACG | 1.11 ± 0.048 |
| GAGTTCTAGG | 0.991 ± 0.038 |
| ATAGTTTGAG | 1.01 ± 0.018 |
| ATTAATAGCT | 1.05 ± 0.0049 |
| GTATAAATGG | 0.978 ± 0.023 |
| ACTAATACGA | 2.41 ± 1.8 |
| GGGGTTTTGC | 0.985 ± 0.017 |
| TGGGGGACCT | 1.09 ± 0.1 |
| ATTCGGGGAC | 1.058 ± 0.009 |
| CAGTTTTATT | 0.992 ± 0.022 |
| TTACGGGCGC | 0.9684 ± 0.0086 |
| TTGCTGGGTG | 1.1 ± 0.056 |
| ACCGGGGGCC | 1.02 ± 0.013 |
| CGAGGGGAAG | 0.992 ± 0.022 |
| GGGTCGCGGG | 0.9946 ± 0.0024 |
| ATGATACCTT | 1.17 ± 0.019 |
| ACCGCAGGGG | 1.42 ± 0.6 |
| AGATGATATA | 0.999 ± 0.013 |
| ACTATGGAGC | 1.07 ± 0.077 |
| GGTCGTTCGC | 1.01 ± 0.038 |
| CGGCAATGGG | 1.77 ± 0.15 |
| GAGTTTTGTG | 0.961 ± 0.015 |
| TTTCATCCAA | 1.42 ± 0.48 |
| TTTCATACGA | 1.01 ± 0.045 |
| GCTATCTTTT | 1.02 ± 0.04 |

| Sequence | switch fluorescence ratio |
| --- | --- |
| TTGGACATAT | 1.008 ± 0.0039 |
| TTATTTTCTG | 1 ± 0.014 |
| TTATCTTTTT | 1 ± 0.032 |
| AGCTTAAGAC | 1.36 ± 0.041 |
| GGCTGATTTG | 0.961 ± 0.027 |
| GGGTTTTTGC | 1.04 ± 0.045 |
| TTTGTCGTTT | 1.03 ± 0.055 |
| CGCTGGAACT | 1.0166 ± 0.00022 |
| GCGCGCTGGG | 0.9646 ± 0.0044 |
| GGTTTTATGT | 0.984 ± 0.032 |
| TTGTTTGGGA | 1.02 ± 0.034 |
| AGTATTCTTA | 0.99324 ± 0.00072 |
| GTAACGGAAC | 1.13 ± 0.018 |
| TATACGACTT | 1.03 ± 0.029 |
| CTCGGGTGCG | 0.973 ± 0.071 |
| AAAAAGGGTT | 1 ± 0.025 |
| CACCTCTTAC | 1.271 ± 0.0029 |
| TCTAGATGGT | 0.992 ± 0.025 |
| GTAAGGGGTT | 1.033 ± 0.0064 |
| CGGGCTTAAG | 1.02 ± 0.037 |
| TGGAGTGCTT | 0.983 ± 0.0022 |
| TTGTTACATG | 1.012 ± 0.0051 |
| GATAGAAGGA | 1.02 ± 0.033 |
| TTCCGTTGCG | 1.16 ± 0.2 |
| AGGGTCTCCG | 1 ± 0.062 |

| Sequence | switch fluorescence ratio |
| --- | --- |
| GGAGATGCTA | 0.9616 ± 0.0059 |
| GATATCCAGC | 1.02 ± 0.023 |
| CAGAAAAGCT | 1.07 ± 0.034 |
| ACCCTTGGGG | 1.02 ± 0.064 |
| GACGACGGTT | 1.55 ± 0.1 |
| AGACAAAGCG | 1.03 ± 0.035 |
| TTATTTTTTA | 0.993 ± 0.028 |
| TAGTTACACA | 1.04 ± 0.035 |
| AAGCAGATAG | 1.46 ± 0.048 |
| TAGAGACCTG | 1 ± 0.071 |
| AGACAGAGGG | 0.988 ± 0.012 |
| TGTGGGGAGT | 0.952 ± 0.019 |
| ATATAGAGTT | 1.02 ± 0.082 |
| TAGGGGTCGT | 1 ± 0.02 |
| GCTAGTCTCA | 1.01 ± 0.028 |
| GTTTATTCGG | 0.981 ± 0.019 |
| CACCTAAAAT | 1.03 ± 0.037 |
| GTGGGATGAT | 0.9663 ± 0.0078 |
| TACCTGGGTC | 0.996 ± 0.028 |
| GGGTATTACG | 0.975 ± 0.023 |
| ACACGGGGAG | 1.01 ± 0.044 |
| TTCAAGGCAG | 1.03 ± 0.043 |
| TTTGTCTGTT | 1.03 ± 0.038 |
| AGTGCTTCGT | 0.9905 ± 0.0094 |
| TTGGGTAGGG | 1.01 ± 0.051 |

| Sequence | switch fluorescence ratio |
| --- | --- |
| TGTTTAGAAA | 1.01 ± 0.014 |
| CTATGCTGGT | 1.01 ± 0.037 |
| CGTCATTTAC | 1.63 ± 0.074 |
| ATAGGTCAGG | 1.026 ± 0.0022 |
| ATTAAAATGG | 1.02 ± 0.017 |
| TGATTTGGGT | 1.01 ± 0.021 |
| TCGGTCGGGA | 1.022 ± 0.0017 |
| CGGGTCCTAA | 0.9795 ± 0.0078 |
| TGTTTTATTT | 0.984 ± 0.018 |
| TTCATCGGGA | 0.981 ± 0.055 |
| CCTAGTTCGG | 0.997 ± 0.027 |
| GCTTCCAGTT | 0.995 ± 0.035 |
| TATTTTCAGA | 1.04 ± 0.014 |
| CCAGTCGGAG | 0.9776 ± 0.0038 |
| GGAGGGCAAC | 1.01 ± 0.028 |
| CAGCCGGGGA | 1.02 ± 0.019 |
| TCGACGGGCG | 1.03 ± 0.02 |
| TTTTTGCTCG | 1 ± 0.03 |
| TGTATGTGGG | 0.999 ± 0.028 |
| GGTTGGTACG | 1.01 ± 0.019 |
| CCTGTGTTCG | 1 ± 0.025 |
| ATATTTATTT | 1.015 ± 0.009 |
| GGTATAGAGC | 1.02 ± 0.05 |
| TCTTTGAAGA | 1.14 ± 0.24 |
| GGAAGTTGTA | 1.07 ± 0.13 |

| Sequence | switch fluorescence ratio |
| --- | --- |
| CGCATGGGGG | 1.08 ± 0.011 |
| ATGGTTGGGA | 0.998 ± 0.024 |
| GTTGTGTGAT | 0.982 ± 0.027 |
| CTGGTTCGGT | 1.01 ± 0.037 |
| TTTTAACATA | 1.02 ± 0.016 |
| TGGAGCCAGG | 1.08 ± 0.064 |
| CGGTTAAGAT | 0.993 ± 0.012 |
| GGAAGGTA | 0.997 ± 0.03 |
| AAACTCTTTT | 0.978 ± 0.039 |
| AATAGGGTGC | 1.07 ± 0.045 |
| CAGTGGAGCC | 1.01 ± 0.034 |
| AATAAGCGCA | 0.993 ± 0.037 |
| AGACTTTAAA | 1.01 ± 0.019 |
| GCCGGAAAGT | 1.05 ± 0.07 |
| CGGTGATGGG | 1.01 ± 0.031 |
| ACAGAGGGTT | 1.03 ± 0.045 |
| ACTTTCTGAC | 1.22 ± 0.24 |
| AAATTGGGGA | 0.986 ± 0.014 |
| CGGGGGCGCA | 0.9414 ± 0.007 |
| CTCTCACTGC | 1.32 ± 0.05 |
| AGATTAAACA | 1.02 ± 0.032 |
| AAAACTGTCA | 1.009 ± 0.0086 |
| AACGGCCCTG | 1.03 ± 0.026 |
| TTCTCTTTTG | 0.993 ± 0.031 |
| GGGCCTTTAG | 1.02 ± 0.033 |

| Sequence | switch fluorescence ratio |
| --- | --- |
| CATTATTGGC | 1.06 ± 0.025 |
| TTGAAGTTGT | 1.01 ± 0.039 |
| ATTAGAATGT | 1.02 ± 0.023 |
| ATTGGGGAT | 1.02 ± 0.018 |
| TGATTGGGAA | 0.995 ± 0.021 |
| ATCGGAATCC | 1.19 ± 0.094 |
| TTATATCGTT | 0.998 ± 0.017 |
| AAAGTACGCG | 0.984 ± 0.046 |
| AAGGGCGGGG | 1.01 ± 0.019 |
| TTCATCATGT | 1.02 ± 0.023 |
| ATACAAATTA | 1.01 ± 0.027 |
| ATTTGGGCCT | 1.02 ± 0.032 |
| CCTGATGGGG | 1.01 ± 0.017 |
| TTCTATTGGT | 0.9828 ± 0.0023 |
| TCATCGGGGA | 1.01 ± 0.028 |
| GCCGGGGATG | 1.007 ± 0.0024 |
| CGGATCTTTG | 0.977 ± 0.0033 |
| TGGCGTTGTG | 0.9928 ± 0.0017 |
| CATTAGATGC | 1.06 ± 0.056 |
| GCATGTGAAA | 1 ± 0.015 |
| TTTGTGATTG | 0.985 ± 0.094 |
| TTATGACTCA | 1.01 ± 0.03 |
| GTGACCGTGT | 1 ± 0.053 |
| AATATTGTGG | 0.974 ± 0.019 |
| AGTACAGGCG | 1.024 ± 0.0097 |

| Sequence | switch fluorescence ratio |
| --- | --- |
| ACGCGGATTG | 1.002 ± 0.0017 |
| TTAATGTGGA | 0.993 ± 0.046 |
| TAATCAGGGG | 1.07 ± 0.16 |
| TTTAGTGAG | 1.02 ± 0.011 |
| ATGGGTTATT | 0.98 ± 0.045 |
| GGTGTGCTTT | 1.02 ± 0.025 |
| TAAATGTATG | 1.01 ± 0.041 |
| GTGGGGTAAA | 1.01 ± 0.055 |
| AGCCCCATAG | 1.17 ± 0.042 |
| TTTTTAACTA | 0.993 ± 0.012 |
| AGAATAAGTT | 1.013 ± 0.0018 |
| ATCAGAGGTA | 1.01 ± 0.014 |
| TAGGGTGTTT | 0.993 ± 0.034 |
| GGCTATGGTG | 1.004 ± 0.01 |
| TTATCATAGG | 1.01 ± 0.012 |
| AGTTATAGCT | 0.985 ± 0.014 |
| ATAGGGACAG | 1.012 ± 0.0078 |
| TTTAGACGAC | 1.04 ± 0.051 |
| AAGGGCAGTT | 0.97609 ± 0.00084 |
| ATCGTTCTTT | 0.973 ± 0.027 |
| TAGAGGAGCT | 1 ± 0.038 |
| TTTTTTAATA | 1 ± 0.036 |
| ATGGGGGTGG | 0.99 ± 0.0087 |
| ATTAGCAGCA | 1.05 ± 0.025 |
| GAAGCGAGTG | 0.9785 ± 0.0056 |

| Sequence | switch fluorescence ratio |
| --- | --- |
| TGTTTTTGT | 1.18 ± 0.29 |
| AGGTTAGGGG | 0.998 ± 0.037 |
| CTGGGGTGGG | 1.01 ± 0.042 |
| CAACTACGGC | 1.09 ± 0.05 |
| TTATGGATTT | 1.01 ± 0.037 |
| TCAGCGCTTT | 0.977 ± 0.032 |
| GGTCGGGGAA | 1.01 ± 0.042 |
| TAGGGGAGTA | 0.9792 ± 0.0068 |
| GGGCATAGTT | 0.97 ± 0.018 |
| GGGTTGGATT | 0.991 ± 0.023 |
| TGCTGCAAAG | 0.9943 ± 0.0049 |
| ATGAGGATGT | 1 ± 0.019 |
| TTTTACACCT | 1.23 ± 0.2 |
| TTTGCATCTC | 1.03 ± 0.044 |
| GTTGTCAATG | 0.974 ± 0.021 |
| CAAGAAAGTG | 0.9875 ± 0.0071 |
| TACGGTCGCG | 0.9949 ± 0.0036 |
| TCTGGCAATG | 1.46 ± 0.061 |
| ATTTTAAATT | 1 ± 0.019 |
| TAATTTTAGT | 1.0092 ± 0.00027 |
| TTACTTGCGT | 1.06 ± 0.035 |
| TATAAAGAGA | 0.9978 ± 0.0057 |
| TATAATACTT | 1.026 ± 0.0038 |
| GGTTTGTATG | 0.976 ± 0.021 |
| TTAACCAAGA | 0.9755 ± 0.0022 |
